From doi:10.1101/2025.07.04.663185 (bioRxiv, 2025)

B1: Wee1 (enzyme)
chain: MSSSSNTSSHRSYGLRRSQRSMNLNRATLLAPPTPSSLYDANNSTSSTSSQKPNTSFTSLFGPRKQTTSSPSFSHAAPLHPLSPPSFTHSQPQIQAQPVPRRPSLFDRPNLVSRSSSRLGDSPSLSPVAQVANPIHHTAPSPSDVRAFPIHKNASTGVKRSFFSSSMSNGAMSPPSHSPSPFLQSSQHIPPSTPAQKLRKKNNFDSFRISNSHISPFASGSFSPFATSSPNFLSTSTPAPPNSNNANPSTLFSSIPSSRHTTSNHFPSNSAQSSLFSPTARPLTARKLGFASSQTKSAVSNNHSRNSSKDASFMMKSFIPSNRSHPQTQQNESSLFSDNSMVNSSSNSFSLFPNATLPNPPSSELLTTPFQQIKPPSQVFMSTGLLSKQHRPRKNINFTPLPPSTPSKPSTFVRPHSSSTDSPPSPSTPSNTQTDSYFIQRENTPTNHNSIPTIQLEKSSMDFLRFDPPPSAVKTSHNYGLPFLSNQRCPATPTRNPFAFENTVSIHMDGRQPSPIKSRNNNQMSFAMEEEADVSQPSSSSFTLSFPSALTSSKVSSSTSHLLTRFRNVTLLGSGEFSEVFQVEDPVEKTLKYAVKKLKVKFSGPKERNRLLQEVSIQRALKGHDHIVELMDSWEHGGFLYMQVELCENGSLDRFLEEQGQLSRLDEFRVWKILVEVALGLQFIHHKNYVHLDLKPANVMITFEGTLKIGDFGMASVWPVPRGMEREGDCEYIAPEVLANHLYDKPADIFSLGITVFEAAANIVLPDNGQSWQKLRSGDLSDAPRLSSTDNGSSLTSSSRETPANSIIGQGGLDRVVEWMLSPEPRNRPTIDQILATDEVCWVEMRRKAGAIIYEGIHGSSSNPQGDQMMEDWQVNV
B2: Cdc25 (enzyme)
chain: MDSPLSSLSFTNTLSGKRNVLRPAARELKLMSDRNANQELDFFFPKSKHIASTLVDPFGKTCSTASPASSLAADMSMNMHIDESPALPTPRRTLFRSLSCTVETPLANKTIVSPLPESPSNDALTESYFFRQPASKYSITQDSPRVSSTIAYSFKPKASIALNTTKSEATRSSLSSSSFDSYLRPNVSRSRSSGNAPPFLRSRSSSSYSINKKKGTSGGQATRHLTYALSRTCSQSSNTTSLLESCLTDDTDDFELMSDHEDTFTMGKVADLPESSVELVEDAASIQRPNSDFGACNDNSLDDLFQASPIKPIDMLPKINKDIAFPSLKVRSPSPMAFAMQEDAEYDEQDTPVLRRTQSMFLNSTRLGLFKSQDLVCVTPKQSTKESERFISSHVEDLSLPCFAVKEDSLKRITQETLLGLLDGKFKDIFDKCIIIDCRFEYEYLGGHISTAVNLNTKQAIVDAFLSKPLTHRVALVFHCEHSAHRAPHLALHFRNTDRRMNSHRYPFLYYPEVYILHGGYKSFYENHKNRCDPINYVPMNDASHVMTCTKAMNNFKRNATFMRTKSYTFGQSVLASPDVNDSPTAMHSLSTLRRF

Molecular target: Cdc2-GFP (S. pombe, UniProt P04551 1-297)
Assay: affinity purification with mass spectrometry

Cdc2-GFP, sequence (P04551 whole entry): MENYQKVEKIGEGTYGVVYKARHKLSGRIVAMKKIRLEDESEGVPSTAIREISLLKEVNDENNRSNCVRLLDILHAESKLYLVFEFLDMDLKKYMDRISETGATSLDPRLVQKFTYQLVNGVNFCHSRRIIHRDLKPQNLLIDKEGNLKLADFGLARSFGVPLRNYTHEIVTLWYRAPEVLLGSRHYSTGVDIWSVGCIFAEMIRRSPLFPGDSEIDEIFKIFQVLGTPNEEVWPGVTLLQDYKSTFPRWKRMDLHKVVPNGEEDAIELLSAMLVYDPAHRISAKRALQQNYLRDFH

| Binder | fold increase in association with Cdc2, suc1^ts versus suc1+ cells |
| --- | --- |
| B1 | 2.5 fold |
| B2 | 3 fold |
